Target: Respiratory complex I (mouse (endogenous in mouse tissues and L929 cells)) (UniProt Q9DC69)
Assay: Blue-DiS complexome profiling

Sequence of UniProt Q9DC69 (Q9DC69 whole entry, looked up, one chain of several): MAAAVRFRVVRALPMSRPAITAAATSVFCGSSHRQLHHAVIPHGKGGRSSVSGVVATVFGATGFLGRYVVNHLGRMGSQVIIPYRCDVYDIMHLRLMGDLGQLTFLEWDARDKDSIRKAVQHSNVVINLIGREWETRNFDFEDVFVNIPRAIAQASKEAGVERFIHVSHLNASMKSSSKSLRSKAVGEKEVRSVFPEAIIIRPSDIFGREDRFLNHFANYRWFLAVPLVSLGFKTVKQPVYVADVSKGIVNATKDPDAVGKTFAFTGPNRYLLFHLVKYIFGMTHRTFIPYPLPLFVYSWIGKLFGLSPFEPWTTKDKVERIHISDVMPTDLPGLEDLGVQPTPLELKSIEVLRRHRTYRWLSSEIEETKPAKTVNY

Substance | stoichiometry N
Respiratory complex IV (from UniProt P00397 1-514) | 1 CI:CIV
Respiratory complex III dimer (from UniProt Q9DB77 15-453) | 2 CIII:CI
